# According to patent US6528275B1, “Substrates and inhibitors of proteolytic enzymes” (Peptide Therapeutics Limited, priority 1996, dated 2003):
# B1: Der pI (Dermatophagoides pteronyssinus) (protein)
# chain: TNACSINGNAPAEIDLRQMRTVTPIRMQGGCGSCWAFSGVAATESAYLAYRNQSLDLAEQELVDCASQHGCHGDTIPRGIEYIQHNGVVQESYYRYVAREQSCRRPNAQRFGISNYCQIYPPNVNKIREALAQTHSAIAVIIGIKDLDAFRHYDGRTIIQRDNGYQPNYHAVNIVGYSNAQGVDYWIVRNSWDTNWGDNGYGYFAANIDLMMIEEYPYVVIL
# notes: tissue SmithKline-Beecham, U.K (crude mite extract); host or cells: crude house dust mite extract
# Tests used:
# Experiment in all cases: Der pI substrate assay with FRET peptides (fluorescence, Km, kcat/Km)
# Assay type in all cases: biochemical, house dust mite
# Settings in all cases: other: purified Der pI; peptides SEQ ID Nos. 1-76; pH 8.25
# [1] = substrate: CC(C)CC[C@H](NC(=O)[C@H](C)NC(=O)[C@@H](NC(=O)c1ccccc1N)C(C)C)C(=O)N[C@@H](CO)C(=O)N[C@@H](Cc1ccc(O)c([N+](=O)[O-])c1)C(=O)N[C@@H](CC(=O)O)C(N)=O
# Method: (§1) Using the general techniques described above, the following compounds were prepared and assayed as potential substrates against Der pI purified as described above.
# (§2) Each mixture of 20 compounds in the libraries of the apparatus described herein was screened at a concentration of 1.0 μM per compound in an assay against the cysteinyl protease Der pI.
# (§3) Plate assays were carried out in 96 well plate format, using 0.1 ug of Der pI per 100 μL assay volume in each well and using 20 μM of the substrate. All assays were performed in Assay Buffer (AB; 50 mM potassium phosphate, pH 8.25 containing 1 mM ethylenediaminetetraacetic acid (EDTA) and 1 mM dithiothreitol (DTT). The Der pI enzyme is pre-activated by addition of DTT and this in incubated at room temperature for 5 min. prior to initiation of the assay. As an example for the screening methodology, each well contains a 5 μL of a 20 μM solution of the test compound in DMSO, 10 μL of a 200 μM aqueous solution of the substrate, 2, and 85 μL of Der pI in AB is added to initiate the reaction. Enzyme activity is monitored by fluorescence using 320 nm for excitation and 420 nm for the emission wavelengths using a Labsystems Fluroskan Ascent machine. Kinetic measurements were carried out using a Hitachi F-4500 Fluorescence Spectrophotometer.
# [2] = substrate: CC(C)CC[C@H](NC(=O)[C@H](C)NC(=O)[C@H](CCC(N)=O)NC(=O)c1ccccc1N)C(=O)N[C@@H](CO)C(=O)N[C@@H](Cc1ccc(O)c([N+](=O)[O-])c1)C(=O)N[C@@H](CC(=O)O)C(N)=O
# Method: as §1, §2, §3
# [3] = substrate: CC(C)CC[C@H](NC(=O)[C@H](C)NC(=O)[C@H](CC[S+](C)[O-])NC(=O)c1ccccc1N)C(=O)N[C@@H](CO)C(=O)N[C@@H](Cc1ccc(O)c([N+](=O)[O-])c1)C(=O)N[C@@H](CC(=O)O)C(N)=O
# Method: as §1, §2, §3
# [4] = substrate: CC(C)CC[C@H](NC(=O)[C@H](C)NC(=O)[C@H](Cc1ccc(-c2ccccc2)cc1)NC(=O)c1ccccc1N)C(=O)N[C@@H](CC(=O)O)C(=O)N[C@@H](Cc1ccc(O)c([N+](=O)[O-])c1)C(=O)N[C@@H](CC(=O)O)C(N)=O
# Method: as §1, §2, §3
# [5] = substrate: CC(C)CC[C@H](NC(=O)[C@H](C)NC(=O)[C@H](Cc1ccc(-c2ccccc2)cc1)NC(=O)c1ccccc1N)C(=O)N[C@@H](CC1CCCCC1)C(=O)N[C@@H](Cc1ccc(O)c([N+](=O)[O-])c1)C(=O)N[C@@H](CC(=O)O)C(N)=O
# Method: as §1, §2, §3
# [6] = substrate: CC(C)CC[C@H](NC(=O)[C@H](C)NC(=O)[C@H](Cc1ccc(-c2ccccc2)cc1)NC(=O)c1ccccc1N)C(=O)N[C@@H](CCCCN)C(=O)N[C@@H](Cc1ccc(O)c([N+](=O)[O-])c1)C(=O)N[C@@H](CC(=O)O)C(N)=O
# Method: as §1, §2, §3
# [7] = substrate: CC(C)CC[C@H](NC(=O)[C@H](C)NC(=O)[C@H](Cc1ccc(-c2ccccc2)cc1)NC(=O)c1ccccc1N)C(=O)N[C@@H](Cc1ccc(O)cc1)C(=O)N[C@@H](Cc1ccc(O)c([N+](=O)[O-])c1)C(=O)N[C@@H](CC(=O)O)C(N)=O
# Method: as §1, §2, §3
# [8] = substrate: CC(C)CC[C@H](NC(=O)[C@H](CCCCN)NC(=O)[C@@H](NC(=O)c1ccccc1N)C(C)C)C(=O)N[C@@H](CO)C(=O)N[C@@H](Cc1ccc(O)c([N+](=O)[O-])c1)C(=O)N[C@@H](CC(=O)O)C(N)=O
# Method: as §1, §2, §3
# [9] = substrate: CC(C)CC[C@H](NC(=O)[C@H](CC[S+](C)[O-])NC(=O)[C@@H](NC(=O)c1ccccc1N)C(C)C)C(=O)N[C@@H](CO)C(=O)N[C@@H](Cc1ccc(O)c([N+](=O)[O-])c1)C(=O)N[C@@H](CC(=O)O)C(N)=O
# Method: as §1, §2, §3
# [10] = substrate: CC(C)[C@H](NC(=O)c1ccccc1N)C(=O)N[C@@H](C)C(=O)N[C@@H](CCCCN)C(=O)N[C@@H](CO)C(=O)N[C@@H](Cc1ccc(O)c([N+](=O)[O-])c1)C(=O)N[C@@H](CC(=O)O)C(N)=O
# Method: as §1, §2, §3
# [11] = substrate: CC(C)[C@H](NC(=O)c1ccccc1N)C(=O)N[C@@H](C)C(=O)N[C@H](C(=O)N[C@@H](CO)C(=O)N[C@@H](Cc1ccc(O)c([N+](=O)[O-])c1)C(=O)N[C@@H](CC(=O)O)C(N)=O)[C@@H](C)O
# Method: as §1, §2, §3
# [12] = substrate: CCCC[C@H](NC(=O)[C@H](C)NC(=O)[C@@H](NC(=O)[C@H](CCCCN)NC(=O)c1ccccc1N)C(C)C)C(=O)N[C@@H](CO)C(=O)N[C@@H](Cc1ccc(O)c([N+](=O)[O-])c1)C(=O)N[C@@H](CC(=O)O)C(N)=O
# Method: as §1, §2, §3
protein,measurement,setting,value
B1,Km,[1],4 µM
same,Km,[2],12 µM
same,Km,[3],20 µM
same,Km,[4],5.0 µM
same,Km,[5],2.5 µM
same,Km,[6],2 µM
same,Km,[7],3 µM
same,Km,[8],35 µM
same,Km,[9],35 µM
same,Km,[10],14 µM
same,Km,[11],6 µM
same,Km,[12],15 µM
